Source: PMC13379236 (Cell reports, 2026)
“Also recorded” adds a separate entry of the source.

Test system: ZYG11B
Type: cell-based, human

Molecule | binding to ZYG11B Extended Surface I mutants | binding to ZYG11B Gly-pocket mutants | binding to ZYG11B R466A (Extended Surface II) | interaction of NLRP1 mutants with ZYG11B
NLRP1 Gly/N-degron: C-terminal fragment generated by 3C cleavage, which exposes the Gly/N-degron, begins at glycine-131 (protein) GSERRVLRQLPDTSGRRWREISASLLYQALPSSPDHESPSQESPNAPTSTAVLGSWGSPPQPSLAPREQEAPGTQWPLDETSGIYYTEIREREREKSEKGRPPWAAVVGTPPQAHTSLQPHHHPWEPSVRESLCSTWPWKNEDFNQKFTQLLLLQRPHPRSQDPLVKRSWPDYVEENRGHLIEIRDLFGPGLDTQEPRIVILQGAAGIGKSTLARQVKEAWGRGQLYGDRFQHVFYFSCRELAQSKVVSLAELIGKDGTATPAPIRQILSRPERLLFILDGVDEPGWVLQEPSSELCLHWSQPQPADALLGSLLGKTILPEASFLITARTTALQNLIPSLEQARWVEVLGFSESSRKEYFYRYFTDERQAIRAFRLVKSNKELWALCLVPWVSWLACTCLMQQMKRKEKLTLTSKTTTTLCLHYLAQALQAQPLGPQLRDLCSLAAEGIWQKKTLFSPDDLRKHGLDGAIISTFLKMGILQEHPIPLSYSFIHLCFQEFFAAMSYVLEDEKGRGKHSNCIIDLEKTLEAYGIHGLFGASTTRFLLGLLSDEGEREMENIFHCRLSQGRNLMQWVPSLQLLLQPHSLESLHCLYETRNKTFLTQVMAHFEEMGMCVETDMELLVCTFCIKFSRHVKKLQLIEGRQHRSTWSPTMVVLFRWVPVTDAYWQILFSVLKVTRNLKELDLSGNSLSHSAVKSLCKTLRRPRCLLETLRLAGCGLTAEDCKDLAFGLRANQTLTELDLSFNVLTDAGAKHLCQRLRQPSCKLQRLQLVSCGLTSDCCQDLASVLSASPSLKELDLQQNNLDDVGVRLLCEGLRHPACKLIRLGLDQTTLSDEMRQELRALEQEKPQLLIFSRRKPSVMTPTEGLDTGEMSNSTSSLKRQRLGSERAASHVAQANLKLLDVSKIFPIAEIAEESSPEVVPVELLCVPSPASQGDLHTKPLGTDDDFWGPTGPVATEVVDKEKNLYRVHFPVAGSYRWPNTGLCFVMREAVTVEIEFCVWDQFLGEINPQHSWMVAGPLLDIKAEPGAVEAVHLPHFVALQGGHVDTSLFQMAHFKEEGMLLEKPARVELHHIVLENPSFSPLGVLLKMIHNALRFIPVTSVVLLYHRVHPEEVTFHLYLIPSDCSIRKAIDDLEMKFQFVRIHKPPPLTPLYMGCRYTVSGSGSGMLEILPKELELCYRSPGEDQLFSEFYVGHLGSGIRLQVKDKKDETLVWEALVKPGDLMPATTLIPPARIAVPSPLDAPQLLHFVDQYREQLIARVTSVEVVLDKLHGQVLSQEQYERVLAENTRPSQMRKLFSLSQSWDRKCKDGLYQALKETHPHLIMELWEKGSKKGLLPLSS | decreases the binding | abolishes the binding | relatively strong reduction | –
E133K: E133K mutation of NLRP1 (residue E3 of the Gly/N-degron) (protein) GSKRRVLRQLPDTSGRRWREISASLLYQALPSSPDHESPSQESPNAPTSTAVLGSWGSPPQPSLAPREQEAPGTQWPLDETSGIYYTEIREREREKSEKGRPPWAAVVGTPPQAHTSLQPHHHPWEPSVRESLCSTWPWKNEDFNQKFTQLLLLQRPHPRSQDPLVKRSWPDYVEENRGHLIEIRDLFGPGLDTQEPRIVILQGAAGIGKSTLARQVKEAWGRGQLYGDRFQHVFYFSCRELAQSKVVSLAELIGKDGTATPAPIRQILSRPERLLFILDGVDEPGWVLQEPSSELCLHWSQPQPADALLGSLLGKTILPEASFLITARTTALQNLIPSLEQARWVEVLGFSESSRKEYFYRYFTDERQAIRAFRLVKSNKELWALCLVPWVSWLACTCLMQQMKRKEKLTLTSKTTTTLCLHYLAQALQAQPLGPQLRDLCSLAAEGIWQKKTLFSPDDLRKHGLDGAIISTFLKMGILQEHPIPLSYSFIHLCFQEFFAAMSYVLEDEKGRGKHSNCIIDLEKTLEAYGIHGLFGASTTRFLLGLLSDEGEREMENIFHCRLSQGRNLMQWVPSLQLLLQPHSLESLHCLYETRNKTFLTQVMAHFEEMGMCVETDMELLVCTFCIKFSRHVKKLQLIEGRQHRSTWSPTMVVLFRWVPVTDAYWQILFSVLKVTRNLKELDLSGNSLSHSAVKSLCKTLRRPRCLLETLRLAGCGLTAEDCKDLAFGLRANQTLTELDLSFNVLTDAGAKHLCQRLRQPSCKLQRLQLVSCGLTSDCCQDLASVLSASPSLKELDLQQNNLDDVGVRLLCEGLRHPACKLIRLGLDQTTLSDEMRQELRALEQEKPQLLIFSRRKPSVMTPTEGLDTGEMSNSTSSLKRQRLGSERAASHVAQANLKLLDVSKIFPIAEIAEESSPEVVPVELLCVPSPASQGDLHTKPLGTDDDFWGPTGPVATEVVDKEKNLYRVHFPVAGSYRWPNTGLCFVMREAVTVEIEFCVWDQFLGEINPQHSWMVAGPLLDIKAEPGAVEAVHLPHFVALQGGHVDTSLFQMAHFKEEGMLLEKPARVELHHIVLENPSFSPLGVLLKMIHNALRFIPVTSVVLLYHRVHPEEVTFHLYLIPSDCSIRKAIDDLEMKFQFVRIHKPPPLTPLYMGCRYTVSGSGSGMLEILPKELELCYRSPGEDQLFSEFYVGHLGSGIRLQVKDKKDETLVWEALVKPGDLMPATTLIPPARIAVPSPLDAPQLLHFVDQYREQLIARVTSVEVVLDKLHGQVLSQEQYERVLAENTRPSQMRKLFSLSQSWDRKCKDGLYQALKETHPHLIMELWEKGSKKGLLPLSS | – | – | – | decreases the interaction; also recorded: reduced binding to ZYG11B
